Reference: patent publication US20220267469A1 (LIPUM, published 2022)

T1: Biotinylated human BSSL (human, UniProt P19835 21-753, Biotinylated on glycosacarides, 30-40 biotin/BSSL)
T1 construct: hBSSL biotinylated in house; also called b-hBSSL; human BSSL-biotin
T1 sequence: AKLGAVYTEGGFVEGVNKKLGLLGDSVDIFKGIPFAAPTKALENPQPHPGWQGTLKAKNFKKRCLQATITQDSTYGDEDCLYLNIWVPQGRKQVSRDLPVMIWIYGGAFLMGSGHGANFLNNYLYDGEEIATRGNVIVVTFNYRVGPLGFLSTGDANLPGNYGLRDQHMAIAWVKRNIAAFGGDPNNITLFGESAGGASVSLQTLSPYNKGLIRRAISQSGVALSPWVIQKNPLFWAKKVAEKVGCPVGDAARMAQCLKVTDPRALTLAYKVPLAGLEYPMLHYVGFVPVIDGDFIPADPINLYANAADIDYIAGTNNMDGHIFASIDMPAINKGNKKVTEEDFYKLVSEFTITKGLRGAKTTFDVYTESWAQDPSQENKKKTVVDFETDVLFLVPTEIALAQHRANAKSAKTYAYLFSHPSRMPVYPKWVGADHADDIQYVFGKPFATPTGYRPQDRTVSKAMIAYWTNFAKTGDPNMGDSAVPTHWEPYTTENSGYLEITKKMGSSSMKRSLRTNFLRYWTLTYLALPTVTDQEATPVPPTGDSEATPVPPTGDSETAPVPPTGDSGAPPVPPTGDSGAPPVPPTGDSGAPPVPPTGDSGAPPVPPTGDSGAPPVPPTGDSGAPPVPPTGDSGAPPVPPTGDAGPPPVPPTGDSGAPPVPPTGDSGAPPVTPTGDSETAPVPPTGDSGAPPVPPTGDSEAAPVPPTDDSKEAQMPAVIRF

T2: Mouse BSSL, recombinant (mouse, UniProt Q64285 21-599)
T2 construct: Bought (R&D Systems, Cat. no 5658-CE); also called mBSSL; murine BSSL
T2 sequence: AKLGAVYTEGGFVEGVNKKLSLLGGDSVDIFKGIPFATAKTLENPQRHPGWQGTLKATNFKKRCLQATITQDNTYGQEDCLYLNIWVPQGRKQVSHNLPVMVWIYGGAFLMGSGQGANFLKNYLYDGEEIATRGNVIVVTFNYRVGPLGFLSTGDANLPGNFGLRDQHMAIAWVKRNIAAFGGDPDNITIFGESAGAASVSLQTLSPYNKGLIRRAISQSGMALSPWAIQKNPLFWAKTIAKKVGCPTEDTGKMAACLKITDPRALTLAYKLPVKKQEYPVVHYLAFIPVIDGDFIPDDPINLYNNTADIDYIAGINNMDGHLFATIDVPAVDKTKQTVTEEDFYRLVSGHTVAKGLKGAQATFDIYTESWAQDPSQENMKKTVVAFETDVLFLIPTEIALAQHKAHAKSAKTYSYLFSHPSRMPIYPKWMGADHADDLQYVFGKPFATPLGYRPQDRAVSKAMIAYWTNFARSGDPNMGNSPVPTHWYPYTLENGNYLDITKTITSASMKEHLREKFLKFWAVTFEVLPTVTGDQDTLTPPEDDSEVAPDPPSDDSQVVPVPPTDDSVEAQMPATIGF

T3: Human BSSL (bile salt-stimulated lipase), native (human, UniProt P19835 21-753)
T3 construct: Native full-length protein purified from human milk (Astra Hässle AB); also called hBSSL; non-biotinylated human BSSL
T3 sequence: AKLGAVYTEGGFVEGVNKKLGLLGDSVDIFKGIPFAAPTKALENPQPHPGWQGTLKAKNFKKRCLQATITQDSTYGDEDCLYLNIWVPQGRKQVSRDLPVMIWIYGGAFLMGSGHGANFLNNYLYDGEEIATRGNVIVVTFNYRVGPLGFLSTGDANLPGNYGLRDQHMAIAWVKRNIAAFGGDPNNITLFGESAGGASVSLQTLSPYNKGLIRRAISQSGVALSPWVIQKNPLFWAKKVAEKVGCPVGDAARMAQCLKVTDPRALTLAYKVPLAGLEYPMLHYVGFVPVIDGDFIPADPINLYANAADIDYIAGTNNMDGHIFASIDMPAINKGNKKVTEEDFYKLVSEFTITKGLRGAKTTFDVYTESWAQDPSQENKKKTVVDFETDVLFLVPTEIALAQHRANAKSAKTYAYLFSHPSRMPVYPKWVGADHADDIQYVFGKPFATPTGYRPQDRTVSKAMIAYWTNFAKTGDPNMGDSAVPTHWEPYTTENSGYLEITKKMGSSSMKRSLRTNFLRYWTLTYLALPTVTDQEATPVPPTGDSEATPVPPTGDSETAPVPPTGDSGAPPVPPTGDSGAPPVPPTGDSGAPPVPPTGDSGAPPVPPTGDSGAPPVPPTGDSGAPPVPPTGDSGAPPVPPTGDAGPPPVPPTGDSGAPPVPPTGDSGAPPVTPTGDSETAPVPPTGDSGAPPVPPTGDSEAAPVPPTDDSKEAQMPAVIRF


Columns and labels:
Biotinylated human BSSL [1] = biological target: T1, Biotinylated human BSSL; test: flow cytometry displacement assay; 3.0 ug antibody, 1 ug b-hBSSL
How it was run: (§1)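 Antibody (0.5–3.0 μg per reaction) preincubated with 1 μg biotinylated human BSSL in PBS pH 7.4, 30 min at 4 °C, then with human buffy coat 30 min at 4 °C. After erythrocyte lysis/fixation, bound BSSL on CD14+ monocytes detected by labelled streptavidin via flow cytometry.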

Mouse BSSL, recombinant [2] = biological target: T2, Mouse BSSL, recombinant; test: SPR steady state, hIgG4 S228P captured by anti-Fab
How it was run: (§2)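 hIgG4 S228P captured on an immobilized anti-Fab surface; five BSSL concentrations injected, 1:5 dilutions from 50 nM (human) or from 500 nM (mouse). Human BSSL: single-cycle kinetics, 1:1 fit. Mouse BSSL: KD from steady-state equilibrium response versus concentration. Regeneration with 10 mM glycine-HCl pH 2.1.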

Mouse BSSL, recombinant [3] = biological target: T2, Mouse BSSL, recombinant; test: SPR steady state, captured by anti-Fab, Absolute Antibody batch
Experimental: (§3) Kinetic parameters of the hIgG4 S228P clones were determined by SPR using BIACORE® T200 (GE Healthcare). An anti-Fab antibody (GE #28958325) was immobilized on a CM5 S sensor chip by primary amine coupling using NHS-EDC chemistry. The hIgG4 antibodies were captured by the anti-Fab antibody, and subsequently, five different concentrations of hBSSL (1:5 dilutions, 0.08-50 nM) or mBSSL (1:2 dilutions, 50-800 nM) were injected over the surface. The sensor chip surface was regenerated with 10 mM glycine-HCl pH 2.1. For binding to human BSSL, single cycle kinetic data was fitted to a 1:1 binding model and kinetic parameters were retrieved using software BlAevaluation. For mouse BSSL, a steady state analysis was performed by plotting the response level at equilibrium against each concentration, and KD values were retrieved by the BlAevalution software.

[4] = biological target: T3, Human BSSL (bile salt-stimulated …); test: SPR single cycle kinetics, hIgG4 S228P captured by anti-Fab
How it was run: as §2

Biotinylated human BSSL [5] = biological target: T1, Biotinylated human BSSL; test: flow cytometry displacement assay; 1.5 ug antibody, 1 ug b-hBSSL
How it was run: as §1

Biotinylated human BSSL [6] = biological target: T1, Biotinylated human BSSL; test: flow cytometry displacement assay; 0.5 ug antibody, 1 ug b-hBSSL
Experimental: (§4) The 28 BSSL-specific hIgG4 antibodies and the five reference antibodies at different concentrations (ranging from 0.5 μg to 3.0 μg per reaction; see Table 10) were added to b-hBSSL (1 μg per reaction, see Table 2) in round-bottom polystyrene tubes, lx PBS (pH 7.4) was added to a final volume of 20 μl and the antibody/b-hBSSL mixtures were incubated for 30 min. at +4° C. to facilitate binding of antibodies to BSSL. Buffy coat (50 μl) was then added to each antibody/b-hBSSL mixture and incubation continued for another 30 min at +4° C. Thereafter, 2 ml of FACS lysing solution (BD Biosciences) was added and the cells were incubated for 10 min at room temperature in order to lyse erythrocytes and fix the white blood cells. The cells were then centrifuged for 5 min. at 200×g, the resulting pellets were washed by adding 2 ml of FACS buffer (1×PBS supplemented with 1% FCS and 0.1% NaN3) and centrifuged again. Finally, the supernatants were discarded and the cells were resuspended in the last drop of liquid, approximately 50 μl.
(§5) 5 μl of BV421-labelled anti-human CD14 (BD Biosciences) and 5 μl of BB515-labelled streptavidin (BD Biosciences) was added to each tube and incubated for 30 min, at +4° C., protected from light. Thereafter, cells were washed twice with FACS buffer, resuspended in 500 μl FACS buffer, and run on BD LSRII flow cytometer (BD Biosciences). Finally, data were analyzed using FlowJo software (BD Biosciences).

[7] = biological target: T3, Human BSSL (bile salt-stimulated …); test: cell-based or functional assay
Biotinylated human BSSL [8] = biological target: T1, Biotinylated human BSSL; test: flow cytometry displacement assay; 1.0 ug antibody, 1 ug b-hBSSL
Experimental: as §4, §5

[9] = biological target: T3, Human BSSL (bile salt-stimulated …); test: cell-based or functional assay; remark: listed apart in the source
[10] = biological target: T3, Human BSSL (bile salt-stimulated …); test: SPR single cycle kinetics, captured by anti-Fab, Absolute Antibody batch
Experimental: as §3

Biotinylated human BSSL [11] = biological target: T1, Biotinylated human BSSL; test: flow cytometry displacement assay; 2.0 ug antibody, 1 ug b-hBSSL
Experimental: as §4, §5

| Binder | percentage reduction of b-hBSSL binding to CD14+ monocytes (Biotinylated human BSSL [1]) | Kd (Mouse BSSL, recombinant [2]) | Kd (Mouse BSSL, recombinant [3]) | Kd [4] | percentage reduction of b-hBSSL binding to CD14+ monocytes (Biotinylated human BSSL [5]) | percentage reduction of b-hBSSL binding to CD14+ monocytes (Biotinylated human BSSL [6]) | BSSL hydrolysis of triglycerides, relative value (no antibody = 100%); 0.19 ug antibody [7] | BSSL hydrolysis of triglycerides, relative value (no antibody = 100%); 0.38 ug antibody [7] | BSSL hydrolysis of triglycerides, relative value (no antibody = 100%); 0.75 ug antibody [7] | BSSL hydrolysis of triglycerides, relative value (no antibody = 100%); 1.5 ug antibody [7] | BSSL hydrolysis of triglycerides, relative value (no antibody = 100%); 3.0 ug antibody [7] | BSSL hydrolysis of triglycerides, relative value (no antibody = 100%); 6.0 ug antibody [7] | percentage reduction of b-hBSSL binding to CD14+ monocytes (Biotinylated human BSSL [8]) | BSSL hydrolysis of cholesterol esters, relative value (no antibody = 100%); 0.19 ug antibody [9] | BSSL hydrolysis of cholesterol esters, relative value (no antibody = 100%); 0.38 ug antibody [9] | BSSL hydrolysis of cholesterol esters, relative value (no antibody = 100%); 0.75 ug antibody [9] | BSSL hydrolysis of cholesterol esters, relative value (no antibody = 100%); 1.5 ug antibody [9] | BSSL hydrolysis of cholesterol esters, relative value (no antibody = 100%); 3.0 ug antibody [9] | BSSL hydrolysis of cholesterol esters, relative value (no antibody = 100%); 6.0 ug antibody [9] | Kd [10] | also measured |
| --- | --- | --- | --- | --- | --- | --- | --- | --- | --- | --- | --- | --- | --- | --- | --- | --- | --- | --- | --- | --- | --- |
| S-SL048-11 hIgG4 S228P (antibody, V domains shown, also called clone 11; mAb11) VH: QVQLVQSGAEVKKPGASVKVSCKASGYTFTSYNMHWVRQAPGQGLEWMGVIYPGDGATSYAQKFKGRVTMTRDTSTSTVYMELSSLRSEDTAVYYCARDYYGSSPLGYWGQGTLVTVSS VL: DIQMTQSPSSLSASVGDRVTITCSASPSISYMNWYQQKPGKAPKLLIYATSSLASGVPSRFSGSGSGTDFTLTISSLQPEDFATYYCHQRSSYPTFGQGTKLEIKR | 68% | 24 nM | 65 nM | 0.7 nM | 60% | 1% | 109% | 114% | 125% | 112% | 120% | 113% | 9% | 96.2% | 98.2% | 92.2% | 95.2% | 93.7% | 90.2% | 0.6 nM | – |
| S-SL048-118 hIgG4 S228P (antibody, V domains shown, also called clone 118; mAb118) VH: QVQLVQSGAEVKKPGASVKVSCKASGYTFTSYNMHWVRQAPGQGLEWMGVINPGDGATSYAQKFKGRVTMTRDTSTSTVYMELSSLRSEDTAVYYCARDYYGSSPLGYWGQGTLVTVSS VL: DIQMTQSPSSLSASVGDRVTITCSASPSISYMNWYQQKPGKAPKLLIYATSSLPSGVPSRFSGSGSGTDFTLTISSLQPEDFATYYCHQRSSSPTFGQGTKLEIKR | 58% | 95 nM | 70 nM | 0.9 nM | 23% | – | 107% | 106% | 102% | 88% | 93.9% | 119% | – | 105% | 103% | 110% | 105% | 106% | 102% | 0.5 nM | – |
| AS20 hIgG4 S228P (antibody, also called AS20 IgG4; AS20 (parental clone)) heavy: not shown light: QIVLTQSPAVMSASPGEKVTMTCSASSSISYMHWYQQKPGTSPKRWIYDTSKLASGVPARFSGSGSGTSYSLTISSMEAEDAATYYCHQRSSYPTFGGGTKLEIKRTVAAPSVFIFPPSDEQLKSGTASVVCLLNNFYPREAKVQWKVDNALQSGNSQESVTEQDSKDSTYSLSSTLTLSKADYEKHKVYACEVTHQGLSSPVTKSFNRGEC | – | 161 nM | 223 nM | 0.6 nM | – | 19% | – | – | – | – | – | – | 21% | – | – | – | – | – | – | 0.6 nM | percentage reduction of b-hBSSL binding to CD14+ monocytes (Biotinylated human BSSL [11]): 58% |
